This note sets out measurements from US20210309747A1.

The target in the test is human PD-L1 on Raji cells (human) (UniProt Q9NZQ7). Nature of the test: flow cytometry blocking assay on Raji-PDL1 cells; blocked ligand: biotinylated Avi- and His-tag human PD1 protein at 3 ug/mL, Streptavidin-PE, MFI; isotype control, the fitted curve falls only from MFI about 320 to about 240. (In flow cytometry, cells or beads pass a laser one at a time.)
Chain of human PD-L1 on Raji cells (human) (Q9NZQ7 19-290): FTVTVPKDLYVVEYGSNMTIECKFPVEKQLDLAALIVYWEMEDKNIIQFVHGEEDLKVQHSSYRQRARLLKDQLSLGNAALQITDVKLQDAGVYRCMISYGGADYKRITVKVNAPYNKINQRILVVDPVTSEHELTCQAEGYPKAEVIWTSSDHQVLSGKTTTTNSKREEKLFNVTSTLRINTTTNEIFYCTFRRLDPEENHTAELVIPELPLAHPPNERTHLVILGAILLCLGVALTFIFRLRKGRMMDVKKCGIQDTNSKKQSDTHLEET

Usually EC50 stands for the concentration needed to bring the measured effect to its halfway point. Read a high EC50 as a less potent agent. Regarding IgG (antibody), the EC50 was determined as 0.45 nM.
